B1: Neurotensin receptor type 1, P20789 (parent)
chain: MHLNSSVPQGTPGEPDAQPFSGPQSEMEATFLALSLSNGSGNTSESDTAGPNSDLDVNTDIYSKVLVTAIYLALFVVGTVGNSVTAFTLARKKSLQSLQSTVHYHLGSLALSDLLILLLAMPVELYNFIWVHHPWAFGDAGCRGYYFLRDACTYATALNVASLSVERYLAICHPFKAKTLMSRSRTKKFISAIWLASALLAIPMLFTMGLQNRSGDGTHPGGLVCTPIVDTATVKVVIQVNTFMSFLFPMLVISILNTVIANKLTVMVHQAAEQGRVCTVGTHNGLEHSTFNMTIEPGRVQALRHGVLVLRAVVIAFVVCWLPYHVRRLMFCYISDEQWTTFLFDFYHYFYMLTNALFYVSSAINPILYNLVSANFRQVFLSTLACLCPGWRHRRKKRPTFSRKPNSMSSNHAFSTSATRETLY

The text below walks through data of FireProtDB (doi:10.1016/j.jmb.2009.04.068).

Values joined by “and” are separate entries in the source; they are usually repeats but may differ in a detail not shown here. Equal values may be shown once.

In the first data set the parent is B1. As to conditions: Rattus norvegicus; pH 7.4; Heat treatment; Activity; Tris-HCl 50 mM; structure 4BUO; whole UniProt chain shown.
For the variant MHLNSSVPQGTPGEPDAQPFSGPQSEMEATFLALSLSNGSGNTSESDTAGPNSDLDVNTDIYSKVLVTAIYLALFVVGTVGNSVTAFTLARKKSLQSLQSTVAYHLGSLALSDLLILLLAMPVELYNFIWVHHPWAFGDAGCRGYYFLRDACTYATALNVASLSVERYLAICHPFKAKTLMSRSRTKKFISAIWLASALLAIPMLFTMGLQNRSGDGTHPGGLVCTPIVDTATVKVVIQVNTFMSFLFPMLVISILNTVAANKLTVMVHQAAEQGRVCTVGTHNGLEHSTFNMTIEPGRVQALRHGVLVLRAVVIAFVVCWLPYHVRRLMFCYISDEQWTTALFDFYHYFYMLTNALAYVSSAINPILYNLVSANFRQVFLSTLACLCPGWRHRRKKRPTFSRKPNSMSSNHAFSTSATRETLY [F358A H103A I260A F342A], the Tm was 50 °C.
Still for that read-out and setting: with MHLNSSVPQGTPGEPDAQPFSGPQSEMEATFLALSLSNGSGNTSESDTAGPNSDLDVNTDIYSKVLVTAIYLALFVVGTVGNSVTLFTLARKKSLQSLQSTVAYHLGSLALSDLLILLLAMPVELYNFIWVHHPWAFGDAGCRGYYFLRDACTYATALNVASLSVERYLAICHPFKAKTLMSRSRTKKFISAIWLASALLAIPMLFTMGLQNRSGDGTHPGGLVCTPIVDTATVKVVIQVNTFMSFLFPMLVISILNTVIANKLTVMVHQAAEQGRVCTVGTHNGLEHSTFNMTIEPGRVQALRHGVLVLRAVVIAFVVCWLPYHVRRLMFCYISDEQWTTFLFDFYHYFYMLTNALAYVSSAINPILYNLVSANFRQVFLSTLACLCPGWRHRRKKRPTFSRKPNSMSSNHAFSTSATRETLY [F358A A86L H103A] the figure was 48 °C.
On to MHLNSSVPQGTPGEPDAQPFSGPQSEMEATFLALSLSNGSGNTSESDTAGPNSDLDVNTDIYSKVLVTAIYLALFVVGTVGNSVTAFTLARKKSLQSLQSTVHYHLGSLALSDLLILLLAMPVELYNFIWVHHPWAFGDAGCRGYYFLRDACTYATALNVASLSVERYLAICHPFKAKTLMSRSRTKKFISAIWLASALLAIPMLFTMGLQNRSGDGTHPGGLVCTPIVDTATVKVVIQVNTFMSFLFPMLVISILNTVIANKLTVMVHQAAEQGRVCTVGTHNGLEHSTFNMTIEPGRVQALRHGVLVLRAVVIAFVVCWLPYHVRRLMFCYISDEQWTTFLFDFYHYFYMLTNALAYVSSAINPILYNLVSANFRQVFLSTLACLCPGWRHRRKKRPTFSRKPNSMSSNHAFSTSATRETLY [F358A], for which the “change of melting temperature, mutant - wild type (higher = more stable)” value was found to be 7 °C.
As to MHLNSSVPQGTPGEPDAQPFSGPQSEMEATFLALSLSNGSGNTSESDTAGPNSDLDVNTDIYSKVLVTAIYLALFVVGTVGNSVTLFTLARKKSLQSLQSTVAYHLGSLALSDLLILLLAMPVELYNFIWVHHPWAFGDAGCRGYYFLRDACTYATALNVASLSVERYLAICHPFKAKTLMSRSRTKKFISAIWLASALLAIPMLFTMGLQNRSGDGTHPGGLVCTPIVDTATVKVVIQVNTFMSFLFPMLVISILNTVIANKLTVMVHQAAEQGRVCTVGTHNGLEHSTFNMTIEPGRVQALRHGVLVLRAVVIAFVVCWLPYHVRRLMFCYISDEQWTTALFDFYHYFYMLTNALAYVSSAINPILYNLVSANFRQVFLSTLACLCPGWRHRRKKRPTFSRKPNSMSSNHAFSTSATRETLY [F358A A86L H103A F342A], the Tm was 50 °C.
For MHLNSSVPQGTPGEPDAQPFSGPQSEMEATFLALSLSNGSGNTSESDTAGPNSDLDVNTDIYSKVLVTAIYLALFVVGTVGNSVTLFTLARKKSLQSLQSTVHYHLGSLALSDLLILLLAMPVELYNFIWVHHPWAFGDAGCRGYYFLRDACTYATALNVASLSVERYLAICHPFKAKTLMSRSRTKKFISAIWLASALLAIPMLFTMGLQNRSGDGTHPGGLVCTPIVDTATVKVVIQVNTFMSFLFPMLVISILNTVAANKLTVMVHQAAEQGRVCTVGTHNGLEHSTFNMTIEPGRVQALRHGVLVLRAVVIAFVVCWLPYHVRRLMFCYISDEQWTTALFDFYHYFYMLTNALFYVSSAINPILYNLVSANFRQVFLSTLACLCPGWRHRRKKRPTFSRKPNSMSSNHAFSTSATRETLY [A86L I260A F342A], the Tm was determined as 47 °C.
For the variant MHLNSSVPQGTPGEPDAQPFSGPQSEMEATFLALSLSNGSGNTSESDTAGPNSDLDVNTDIYSKVLVTAIYLALFVVGTVGNSVTLFTLARKKSLQSLQSTVHYHLGSLALSDLLILLLAMPVELYNFIWVHHPWAFGDAGCRGYYFLRDACTYATALNVASLSVERYLAICHPFKAKTLMSRSRTKKFISAIWLASALLAIPMLFTMGLQNRSGDGTHPGGLVCTPIVDTATVKVVIQVNTFMSFLFPMLVISILNTVAANKLTVMVHQAAEQGRVCTVGTHNGLEHSTFNMTIEPGRVQALRHGVLVLRAVVIAFVVCWLPYHVRRLMFCYISDEQWTTALFDFYHYFYMLTNALAYVSSAINPILYNLVSANFRQVFLSTLACLCPGWRHRRKKRPTFSRKPNSMSSNHAFSTSATRETLY [A86L I260A F342A F358A], the Tm worked out at 50 °C.
On the same count and under the same terms, with MHLNSSVPQGTPGEPDAQPFSGPQSEMEATFLALSLSNGSGNTSESDTAGPNSDLDVNTDIYSKVLVTAIYLALFVVGTVGNSVTLFTLARKKSLQSLQSTVAYHLGSLALSDLLILLLAMPVELYNFIWVHHPWAFGDAGCRGYYFLRDACTYATALNVASLSVERYLAICHPFKAKTLMSRSRTKKFISAIWLASALLAIPMLFTMGLQNRSGDGTHPGGLVCTPIVDTATVKVVIQVNTFMSFLFPMLVISILNTVAANKLTVMVHQAAEQGRVCTVGTHNGLEHSTFNMTIEPGRVQALRHGVLVLRAVVIAFVVCWLPYHVRRLMFCYISDEQWTTALFDFYHYFYMLTNALAYVSSAINPILYNLVSANFRQVFLSTLACLCPGWRHRRKKRPTFSRKPNSMSSNHAFSTSATRETLY [F358A A86L H103A I260A F342A] the figure was 50 °C.

The same data set, now with this note: Rattus norvegicus; pH 7.4; Thermal; Activity; Tris-HCl 50 mM; structure 4BUO; whole UniProt chain shown.
Take MHLNSSVPQGTPGEPDAQPFSGPQSEMEATFLALSLSNGSGNTSESDTAGPNSDLDVNTDIYSKVLVTAIYLALFVVGTVGNSVTAFTLARKKSLQSLQSTVHYHLGSLALSDLLILLLAMPVELYNFIWVHHPWAFGDAGCRGYYFLRDACTYATALNVASLSVERYLAICHPFKAKTLMSRSRTKKFISAIWLASALLAIPMLFTMGLQNRSGDGTHPGGLVCTPIVDTATVKVVIQVNTFMSFLFPMLVISILNTVIANKLTVMVHQAAEQGRVCTVGTHNGLEHSTFNMTIEPGRVQALRHGVLVLRAVVIAFVVCWLPYHVRRLMFCYISDEQWTTFLFDFYHYFYMLTNALAYVSSAINPILYNLVSANFRQVFLSTLACLCPGWRHRRKKRPTFSRKPNSMSSNHAFSTSATRETLY [F358A]: the “change of melting temperature, mutant - wild type (higher = more stable)” value was 3 °C and 8 °C.
